Consider one molecule from PMC9231623, “ESCPE-1 mediates retrograde endosomal sorting of the SARS-CoV-2 host factor Neuropilin-1” (Proceedings of the National Academy of Sciences of the …, 2022).

The target of one test is T1, SNX5 PX domain (UniProt Q9Y5X3 25-172).
T1 construct: PX domain of sorting nexin 5, from a pGEX-4T-2 construct; also called PX domain of SNX5; source: E. coli BL21 (DE3), purified (glutathione Sepharose 4B, thrombin cleavage, Superdex 75 gel filtration)
T1 sequence (looked up): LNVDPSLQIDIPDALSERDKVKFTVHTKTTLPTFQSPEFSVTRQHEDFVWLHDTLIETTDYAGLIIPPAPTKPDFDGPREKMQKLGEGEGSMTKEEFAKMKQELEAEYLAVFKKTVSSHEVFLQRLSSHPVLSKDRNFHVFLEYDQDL
Put plainly: ITC; Microcal ITC200, 298 K; 50 mM Hepes pH 7.5, 200 mM NaCl, 0.5 mM TCEP; SNX5/6 PX titrated with NRP1 peptide, 13 injections; single site binding model; mean of three experiments. Conditions: both partners purified.

A further test addresses T2, SNX6 PX domain (UniProt Q9UNH7 26-173).
T2 construct: PX domain of sorting nexin 6, from a pGEX-4T-2 construct; also called PX domain of SNX6; source: E. coli BL21 (DE3), purified (glutathione Sepharose 4B, thrombin cleavage, Superdex 75 gel filtration)
T2 sequence (looked up): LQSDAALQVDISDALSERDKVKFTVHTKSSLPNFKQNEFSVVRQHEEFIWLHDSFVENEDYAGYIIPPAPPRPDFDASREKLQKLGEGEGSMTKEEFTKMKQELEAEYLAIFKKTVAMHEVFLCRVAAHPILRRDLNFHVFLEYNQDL
The description is as above. Conditions: both partners purified.

B1: NRP1 peptide (residues 894 to 918 of the cytosolic tail) (peptide)
peptide: not shown
notes: Neuropilin-1 cytosolic tail, residues 894 to 918; only stretches of it are printed (898-NYNFELV-904, 905-DG-906, 907-VKLKKD-912); also called synthetic peptide corresponding to these residues in NRP1; source: synthetic peptide
As to B1, the figures for the Kd with SNX5 PX domain and with SNX6 PX domain were 19.8 µM and 14.3 µM, respectively.
